Reference: patent publication US20230050038A1 (WASHINGTON UNIVERSITY, published 2023)

B1: Clone-01, PDGF-B variant displayed on the yeast surface (ligand)
chain: SLGSLTIAEPAMIAECKTRTELFRISRNLIDRTNANFLVWPPCVEVQRCSGCCNNRYVQCRPTQVQLRPVQVRKIEFVRKKPIFKKATVTLEDHLACRCETVAA
notes: not shown: Aga2p fusion partner, glycine-rich linkers and c-myc tag
B2: Clone-02, PDGF-B variant displayed on the yeast surface (ligand)
chain: SLGSLTIAEPAMIAECNTRTEVFRISRNLIDRTNANFLVWPPCVEVQRCSGCCNNRNVQCRPTQVQLRPVQVRKIEFVRKKPIFKKATVTLEDHLACRCEKVAA
notes: as for B1
B3: Clone-03, PDGF-B variant displayed on the yeast surface (ligand)
chain: SLGSLTIAEPAMIAECKTRTELFRISRNLIDRTNANFLVWPPCVEVQRCSGCCNNRYVQCRPTQVQLRPVQVRKIEFVRKKPIFKKATVTLEDHLACKCEKVAA
notes: as for B1
B4: Clone-07, PDGF-B variant displayed on the yeast surface (ligand)
chain: SLGSLTIAEPAMIAECKTRTEVFEISRNLIDRTNANFLVWPPCVEVQRCSGCCNNRNVQCRPTQVQLRPVQVRKIEFVRKKPIFKKATVTLEDHLACKCETVAA
notes: as for B1
B5: Clone-08, PDGF-B variant displayed on the yeast surface (ligand)
chain: SLGSLTIAEPAMIAECKTRTELFRISRNLIDRTNANFLVWPPCVEVQRCSGCCNNRYVQCRPTQVQLRPVQVRKIEIVRKKPIFKKATVTLEDHLACRCETVAA
notes: as for B1
B6: PDGF-B-cons (consensus sequence), displayed on the yeast surface (ligand)
chain: SLGSLTIAEPAMIAECKTRTEVFRISRNLIDRTNANFLVWPPCVEVQRCSGCCNNRYVQCRPTQVQLRPVQVRKIEFVRKKPIFKKATVTLEDHLACRCETVAA
notes: Consensus of the isolated clones, tested on the yeast surface; also called PDGF-BB-cons; not shown: Aga2p fusion partner, glycine-rich linkers and c-myc tag

These binders were tested against T1, PDGFRβ soluble extracellular domain (UniProt P09619 33-532, limits assumed, fluorescently labeled) (assay: combinatorial yeast display library enriched by FACS for high binding signal to PDGFRβ ectodomain).
T1 construct: extracellular domain; also called PDGFRβ ectodomain; soluble PDGFRβ
T1 sequence (P09619 33-532 limits assumed): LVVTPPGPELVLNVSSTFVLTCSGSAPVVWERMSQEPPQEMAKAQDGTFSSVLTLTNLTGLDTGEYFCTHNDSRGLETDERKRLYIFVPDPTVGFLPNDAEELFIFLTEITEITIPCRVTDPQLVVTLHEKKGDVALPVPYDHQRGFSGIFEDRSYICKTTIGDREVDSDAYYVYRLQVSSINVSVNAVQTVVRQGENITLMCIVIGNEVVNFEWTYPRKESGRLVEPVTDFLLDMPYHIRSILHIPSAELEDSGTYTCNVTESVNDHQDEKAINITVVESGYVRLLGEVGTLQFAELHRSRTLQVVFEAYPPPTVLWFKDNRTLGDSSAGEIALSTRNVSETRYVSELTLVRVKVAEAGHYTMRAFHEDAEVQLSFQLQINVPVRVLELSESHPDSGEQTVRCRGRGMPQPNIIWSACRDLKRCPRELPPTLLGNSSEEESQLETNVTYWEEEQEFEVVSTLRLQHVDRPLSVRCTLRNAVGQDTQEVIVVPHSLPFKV
B1: binds.
B2: binds.
B3: binds.
B4: binds.
B5: binds.

The binders below were run against T1, PDGFRβ soluble extracellular domain (assay: yeast surface display, flow cytometry with soluble PDGFRβ).
B6: binds.
